Results on five molecules are retold here after patent US20160090401A1 (UNIVERSITY OF BRISTOL, published 2016).

Bridge positions count the residues as written; N and C are the ends. I, II: the chains in the order shown.

To fix the notation:
B5: CC-Di-B (peptide)
peptide: Ac-GKIAALKKKNAALKQKIAALKQGYW-NH2
notes: Free module

One series has as its target T1, CC-Di-BI (N-terminal acetyl; C-terminal amide).
T1 construct: also called basic peptide of CC-Di-AIBI
T1 peptide: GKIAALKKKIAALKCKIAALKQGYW
As to the kind of experiment: method not stated for this variant.

In a further series the target is T2, CC-Tri3-CC-Di-BQ (N-terminal acetyl; C-terminal amide; Cys in an asymmetric disulfide with the Cys of the trimer chain; N-terminal acetyl; C-terminal amide; Cys in an asymmetric disulfide with the Cys of the CC-Di-BQ …).
T2 peptide 1: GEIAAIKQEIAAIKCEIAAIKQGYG
T2 peptide 2: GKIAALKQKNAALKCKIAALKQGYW
The series is described as follows: mixing with the respective partner in PBS, 50 µM; SEM.

The target of the next series is T3, CC-Di-AB (N-terminal acetyl (Ac-); C-terminal amide (printed -NH)).
T3 construct: also called heterodimer CC-Di-AB; heterodimeric coiled coil
T3 peptide 1: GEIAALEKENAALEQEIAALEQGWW
T3 peptide 2: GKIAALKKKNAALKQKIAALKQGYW
As to the kind of experiment: CD thermal melting of the mixture, the same as the average of the two independent profiles.

Series [1] concerns the molecule itself. As to the kind of experiment: CD-monitored thermal denaturation over a range of peptide concentrations, extrapolated to 20 °C; dissociation of the homotrimer (two-state).
Series [2] deals with the molecule itself. As to the kind of experiment: CD spectroscopy of the peptide alone (no homomeric coiled coil).
The series “CC-Di-B” addresses B5. The series is described as follows: CD-monitored thermal denaturation over a range of peptide concentrations, extrapolated to 20 °C; dissociation of the heterodimer (two-state).

B1: CC-Di-AI (peptide)
peptide: Ac-GEIAALEKEIAALECEIAALEQGWW-NH2
notes: also called acidic peptide of CC-Di-AIBI
Take B1: in the series with CC-Di-BI, the “affinity relative to the CC-Di-AB parent” value is above 100 fold.

B2: CC-Tri3-CC-Di-AQ (other)
peptide 1: Ac-GEIAAIKQEIAAIKCEIAAIKQGYG-NH2
peptide 2: Ac-GEIAALEQENAALECEIAALEQGWW-NH2
modifications: disulfide I:15-II:15 (inferred)
Regarding B2, in the series with CC-Tri3-CC-Di-BQ, the binding result is on record as “binds”.

B3: CC-Tri3 (peptide)
peptide: Ac-GEIAAIKKEIAAIKQEIAAIKQGYG-NH2
notes: also called homotrimer CC-Tri3; homotrimeric coiled coil
B3: the binding result with CC-Di-AB is “no binding”. Also, the Kd in series [1] is 0.0399 pM.

B4: CC-Di-A (peptide)
peptide: Ac-GEIAALEKENAALEQEIAALEQGWW-NH2
notes: Free module
B4: the binding result in series [2] is “no binding (tested: micromolar range)”. Besides, the Kd with CC-Di-B is 58.3 nM. Take B5: the binding result in series [2] was “no binding (tested: micromolar range)”.

A word on the Kd: it is the concentration at which binding is half-saturated.
